According to patent CN107042099A:

What was measured:
[1] = biological target: Myc-GST融合蛋白 (Myc-GST fusion protein); assay: indirect ELISA, Myc-GST coated at 5 μg/mL, HRP anti-His secondary antibody, heat test at 70℃
[2] = biological target: Myc-GST融合蛋白 (Myc-GST fusion protein); assay: indirect ELISA, Myc-GST coated at 5 μg/mL, HRP anti-His secondary antibody, heat test at 80℃
[3] = biological target: Myc-GST融合蛋白 (Myc-GST fusion protein); assay: indirect ELISA, Myc-GST coated at 5 μg/mL, HRP anti-His secondary antibody, heat test at 90℃

B1: 抗c-Myc标签单域重链抗体 (anti-c-Myc tag single-domain heavy-chain antibody) (VHH, not shown: small tags and cut ends)
VHH: QLQLVESGGGLVRPGESLRLSCDASSSEPPLLAYVVSWFRQVPGKEREGISCSSSSGVRNSYADSVKGRFTISRDNHKNTVYLQMNSLQAEDTAIYYCAAARLGARGCDFREDLQGTWGQGTQVTVSS
- OD450 [1]: 1.4 OD450
- OD450 [2]: 1.2 OD450
- OD450 [3]: 1 OD450
